Experimental findings from publication PMC5404317 are described below.

Sequences and labels used below:
B1: PINK1-V5 WT (V5-6xHis-tagged PINK1 wild type) [human] / TOM40 [human (endogenous in HeLa)] (parent)
chain 1: MAVRQALGRGLQLGRALLLRFTGKPGRAYGLGRPGPAAGCVRGERPGWAAGPGAEPRRVGLGLPNRLRFFRQSVAGLAARLQRQFVVRAWGCAGPCGRAVFLAFGLGLGLIEEKQAESRRAVSACQEIQAIFTQKSKPGPDPLDTRRLQGFRLEEYLIGQSIGKGCSAAVYEATMPTLPQNLEVTKSTGLLPGRGPGTSAPGEGQERAPGAPAFPLAIKMMWNISAGSSSEAILNTMSQELVPASRVALAGEYGAVTYRKSKRGPKQLAPHPNIIRVLRAFTSSVPLLPGALVDYPDVLPSRLHPEGLGHGRTLFLVMKNYPCTLRQYLCVNTPSPRLAAMMLLQLLEGVDHLVQQGIAHRDLKSDNILVELDPDGCPWLVIADFGCCLADESIGLQLPFSSWYVDRGGNGCLMAPEVSTARPGPRAVIDYSKADAWAVGAIAYEIFGLVNPFYGQGKAHLESRSYQEAQLPALPESVPPDVRQLVRALLQREASKRPSARVAANVLHLSLWGEHILALKNLKLDKMVGWLLQQSAATLLANRLTEKCCVETKMKMLFLANLECETLCQAALLLCSWRAAL
chain 2: MGNVLAASSPPAGPPPPPAPALVGLPPPPPSPPGFTLPPLGGSLGAGTSTSRSSERTPGAATASASGAAEDGACGCLPNPGTFEECHRKCKELFPIQMEGVKLTVNKGLSNHFQVNHTVALSTIGESNYHFGVTYVGTKQLSPTEAFPVLVGDMDNSGSLNAQVIHQLGPGLRSKMAIQTQQSKFVNWQVDGEYRGSDFTAAVTLGNPDVLVGSGILVAHYLQSITPCLALGGELVYHRRPGEEGTVMSLAGKYTLNNWLATVTLGQAGMHATYYHKASDQLQVGVEFEASTRMQDTSVSFGYQLDLPKANLLFKGSVDSNWIVGATLEKKLPPLPLTLALGAFLNHRKNKFQCGFGLTIG
B2: PINK1-V5 WT (V5-6xHis-tagged PINK1 wild type) [human] / CDC37 [human (endogenous in HeLa)] (parent)
chain 1: B1 chain 1
chain 2: MVDYSVWDHIEVSDDEDETHPNIDTASLFRWRHQARVERMEQFQKEKEELDRGCRECKRKVAECQRKLKELEVAEGGKAELERLQAEAQQLRKEERSWEQKLEEMRKKEKSMPWNVDTLSKDGFSKSMVNTKPEKTEEDSEEVREQKHKTFVEKYEKQIKHFGMLRRWDDSQKYLSDNVHLVCEETANYLVIWCIDLEVEEKCALMEQVAHQTIVMQFILELAKSLKVDPRACFRQFFTKIKTADRQYMEGFNDELEAFKERVRGRAKLRIEKAMKEYEEEERKKRLGPGGLDPVEVYESLPEELQKCFDVKDVQMLQDAISKMDPTDAKYHMQRCIDSGLWVPNSKASEAKEGEEAGPGDPLLEAVPKTGDEKDVSV

Variants of B1 are the subject of test [1]. As to the kind of experiment: co-immunoprecipitation (V5 agarose) with western blot quantification. Particulars: HeLa cells, read off a plot. On the technique in general: Immunoblotting shows a protein as a band on a membrane.
Variants of B2 are the subject of test [2]. Described as above. Particulars: HeLa cells, read off a plot.

As to chain 1 MAVRQALGRGLQLGRALLLRFTGKPGRAYGLGRPGPAAGCVRGERPGWAAGPGAEPRRVGLGLPNRLRFFRQSVAGLAARLQRQFVVRAWGCAGPCGRAVFLAFGLGLGLIEEKQAESRRAVSACQEIQAIFTQKSKPGPDPLDTRRLQGFRLEEYLIGQSIGKGCSAAVYEATMPTLPQNLEVTKSTGLLPGRGPGTSAPGEGQERAPGAPAFPLAIKMMWNISAGSSSEAILNTMSQELVPASRVALAGEYGAVTYRKSKRGPKQLAPHPNIIRVLRAFTSSVPLLPGALVDYPDVLPSRLHPEGLGHGRTLFLVMKNYPCTLRQYLCVNTPSPRLAAMMLLQLLEGVDHLVQQGIAHRDLKSDNNLVELDPDGCPWLVIADFGCCLADESIGLQLPFSSWYVDRGGNGCLMAPEVSTARPGPRAVIDYSKADAWAVGAIAYEIFGLVNPFYGQGKAHLESRSYQEAQLPALPESVPPDVRQLVRALLQREASKRPSARVAANVLHLSLWGEHILALKNLKLDKMVGWLLQQSAATLLANRLTEKCCVETKMKMLFLANLECETLCQAALLLCSWRAAL [chain 1 I368N], the response (Tom40/V5 ratio) in test [1] (10 μM CCCP for 2 h) is 0.32; in test [1] (untreated (no CCCP)) it was 0.42.

With chain 1 MAVRQALGRGLQLGRALLLRFTGKPGRAYGLGRPGPAAGCVRGERPGWAAGPGAEPRRVGLGLPNRLRFFRQSVAGLAARLQRQFVVRAWGCAGPCGRAVFLAFGLGLGLIEEKQAESRRAVSACQEIQAIFTQKSKPGPDPLDTRRLQGFRLEEYLIGQSIGKGCSAAVYEATMPTLPQNLEVTKSTGLLPGRGPGTSAPGEGQERAPGAPAFPLAIKMMWNISAGSSSEAILNTMSQELVPASRVALAGEYGAVTYRKSKRGPKQLAPHPNIIRVLRAFTSSVPLLPGALVDYPDVLPSRLHPEGLGHGRTLFLVMKNYPCTLRQYLCVNTPSPRLAAMMLLQLPEGVDHLVQQGIAHRDLKSDNILVELDPDGCPWLVIADFGCCLADESIGLQLPFSSWYVDRGGNGCLMAPEVSTARPGPRAVIDYSKADAWAVGAIAYEIFGLVNPFYGQGKAHLESRSYQEAQLPALPESVPPDVRQLVRALLQREASKRPSARVAANVLHLSLWGEHILALKNLKLDKMVGWLLQQSAATLLANRLTEKCCVETKMKMLFLANLECETLCQAALLLCSWRAAL [chain 1 L347P], the response (Tom40/V5 ratio) in test [1] (10 μM CCCP for 2 h) was 0.19; in test [1] (untreated (no CCCP)), 0.35.

Regarding chain 1 MAVRQALGRGLQLGRALLLRFTGKPGRAYGLGRPGPAAGCVRGERPGWAAGPGAEPRRVGLGLPNRLRFFRQSVAGLAARLQRQFVVRAWGCAGPCGRAVFLAFGLGLGLIEEKQAESRRAVSACQEIQAIFTQKSKPGPDPLDTRRLQGFRLEEYLIGQSIGKGCSAAVYEATMPTLPQNLEVTKSTGLLPGRGPGTSAPGEGQERAPGAPAFPLAIKMMWNISAGSSSEAILNTMSQELVPASRVALAGEYGAVTYRKSKRGPKQLAPHPNIIRVLRAFTSSVPLLPGALVDYPDVLPSRLHPEGLGHGRTLFLVMKNYPCTLRQYLCVNTPSPRLAAMMLLQLPEGVDHLVQQGIAHRDLKSDNILVELDPDGCPWLVIADFGCCLADESIGLQLPFSSWYVDRGGNGCLMAPEVSTARPGPRAVIDYSKADAWAVGAIAYEIFGLVNPFYGQGKAHLESRSYQEAQLPALPESVPPDVRQLVRALLQREASKRPSARVAANVLHLSLWGEHILALKNLKLDKMVGWLLQQSAATLLANRLTEKCCVETKMKMLFLANLECETLCQAALLLCSWRAAL [chain 1 L347P], the response (cdc37/V5 ratio) in test [2] (10 μM CCCP for 2 h) is 0.55; in test [2] (untreated (no CCCP)), 0.58.

For the variant chain 1 MAVRQALGRGLQLGRALLLRFTGKPGRAYGLGRPGPAAGCVRGERPGWAAGPGAEPRRVGLGLPNRLRFFRQSVAGLAARLQRQFVVRAWGCAGPCGRAVFLAFGLGLGLIEEKQAESRRAVSACQEIQAIFTQKSKPGPDPLDTRRLQGFRLEEYLIGQSIGKGCSAAVYEATMPTLPQNLEVTKSTGLLPGRGPGTSAPGEGQERAPGAPAFPLAIKMMWNISAGSSSEAILNTMSQELVPASRVALAGEYGAVTYRKSKRGPKQLAPHPNIIRVLRAFTSSVPLLPGALVDYPDVLPSRLHPEGLGHGRTLFLVMKNYPCTLRQYLCVNTPSPRLAAMMLLQLLEGVDHLVQQGIAHRDLKSDNNLVELDPDGCPWLVIADFGCCLADESIGLQLPFSSWYVDRGGNGCLMAPEVSTARPGPRAVIDYSKADAWAVGAIAYEIFGLVNPFYGQGKAHLESRSYQEAQLPALPESVPPDVRQLVRALLQREASKRPSARVAANVLHLSLWGEHILALKNLKLDKMVGWLLQQSAATLLANRLTEKCCVETKMKMLFLANLECETLCQAALLLCSWRAAL [chain 1 I368N], the response (cdc37/V5 ratio) in test [2] (10 μM CCCP for 2 h) was 0.66; in test [2] (untreated (no CCCP)), 0.61.
